Each block holds one molecule with its values, some of them ahead of it.
Experiments:
[1] = target: human tissue factor pathway inhibitor (TFPI) (human) (UniProt P10646); test: SPR (Biacore) blocking assay: human TFPI immobilised on a CM5 chip, control Fab at 1 ug/ml injected before 5 ug/mL FXa; this bar is the reference set to 100% by definition, so FXa binding is not reduced
[2] = target: human tissue factor pathway inhibitor (TFPI) (human) (UniProt P10646); test: SPR (Biacore) blocking assay: human TFPI immobilised on a CM5 chip, control Fab at 1 ug/ml injected before 5 ug/mL FVIIa/TF complex; this bar is the reference set to 100% by definition, so FVIIa/TF binding is not reduced
[3] = target: T1, human tissue factor pathway inhibitor (TFPI) (human, UniProt P10646 29-304); test: assay and TFPI form not stated; reference is the wild type with hc_Lys99
T1 construct: also called human TFPI
T1 sequence: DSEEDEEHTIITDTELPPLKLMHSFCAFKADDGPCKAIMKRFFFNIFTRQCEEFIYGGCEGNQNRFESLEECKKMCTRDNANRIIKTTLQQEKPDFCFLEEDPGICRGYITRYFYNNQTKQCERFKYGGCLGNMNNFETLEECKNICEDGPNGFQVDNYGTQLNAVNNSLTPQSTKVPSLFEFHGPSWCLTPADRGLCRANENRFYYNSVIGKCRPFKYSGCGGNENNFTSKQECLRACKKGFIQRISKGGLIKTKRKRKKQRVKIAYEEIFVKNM

[4] = target: T1, human tissue factor pathway inhibitor …; test: assay and TFPI form not stated; reference is the wild type with hc_Asp62

FXa binding (% of the signal after control Fab) [1]: 100%
FVIIa/TF binding (% of the signal after control Fab) [2]: 100%
Molecule: Ctrl Fab

fold affinity increase against wild type (hc_Lys99) [3]: 20 fold
B1: Fab B (Fab, V domains shown)
VH: QVELVESGGGLVQPGGSLRLSCAASGFTFRSYGMSWVRQAPGKGLEWVSSIRGSSSSTYYADSVKGRFTISRDNSKNTLYLQMNSLRAEDTAVYYCARLYRYWFDYWGQGTLVTVSS
VL: DIELTQPPSVSVAPGQTARISCSGDNLRNYYAHWYQQKPGQAPVVVIYYDNNRPSGIPERFSGSNSGNTATLTISGTQAEDEADYYCQSWDDGVPVFGGGTKLTVLG
notes: also called monoclonal TFPI antibody Fab B

fold affinity increase against wild type (hc_Asp62) [4]: 120 fold
B2: Fab A (Fab, V domains shown)
VH: QVQLQQSGPGLVKPSQTLSLTCAISGDSVSSNSAAWSWIRQSPGRGLEWLGIIYKRSKWYNRYAVSVKSRITINPDTSKNQFSLQLNSVTPEDTAVYYCARWHSDKHWGFDYWGQGTLVTVSS
VL: DIVMTQSPLSLPVTPGEPASISCRSSQSLVFSDGNTYLNWYLQKPGQSPQLLIYKGSNRASGVPDRFSGSGSGTDFTLKISRVEAEDVGVYYCQQYDSYPLTFGQGTKVEIKR
notes: Expressed in E. coli; also called monoclonal antibody Fab A
